Results on one molecule are retold here after US20250326807A1 (published 2025).

The target of the test is T1, Recombinantly expressed fused calprotectin (His6-linker-S100A9-linker-S100A8), product code B-RCAL, BÜHLMANN … (human, UniProt P06702 1-114; P05109 1-93).
T1 construct: Bought fusion protein; also called CP; human recombinant calprotectin
T1 sequence: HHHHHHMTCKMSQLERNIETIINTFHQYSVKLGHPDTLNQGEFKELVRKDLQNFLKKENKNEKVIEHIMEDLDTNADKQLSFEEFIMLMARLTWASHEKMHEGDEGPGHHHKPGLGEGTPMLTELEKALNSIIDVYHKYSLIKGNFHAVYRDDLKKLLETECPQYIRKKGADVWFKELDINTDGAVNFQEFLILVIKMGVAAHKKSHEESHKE
Nature of the test: fluorescence polarization, 20 nM fluorescent peptide, calprotectin titrated. On the procedure: The reaction mixture was incubated at 30° C. for 1 hr, and the completion of the reaction was assessed by LCMS. The reaction was stopped by addition of HCOOH (200 μL) and the cyclized peptide was lyophilized. The final purification was performed as before with a reversed-phase C18 column (X-bridge peptide BEH C18 5 μm, 300 Å, 10×250 mm, Waters) applying a flow rate of 6 mL/min and an appropriate linear gradient in 40 min. Fractions containing the desired peptide were lyophilized. The purity of the peptides was assessed by analysing around 20 μg of peptide by RP-HPLC (1260 HPLC system, Agilent) using a C18 column (ZORBAX 300SB-C18, 5 μm, 300 Å, 4.6×250 mm, Agilent). Peptides were run at a flow rate of 1 mL min⁻¹ with a linear gradient of 0-100% of solvent B over 15 min (A: 94.9% H₂O, 5% ACN and 0.1% TFA; B: 99.9% ACN and 0.1% TFA). The mass was determined by electrospray ionization mass spectrometry (ESI-MS) in positive ion mode on a single quadrupole liquid chromatography mass spectrometer (LCMS-2020, Shimadzu). […] Fluorescence anisotropy was measured on a microwell plate reader (Infinite M200Pro, Tecan), with a filter for excitation at 485 nm and emission at 535 nm. Dissociation constant (Kd) was calculated using the following equation on Prism 5 (GraphPad): […]
(In general: Polarisation of emitted light reports the rotation of a fluorescent probe.)

B1: Peptide 3 Isomer 1 (RCPECVAFPMFQCHWYCG with cross-linked neighboring cysteines) (peptide)
peptide: RCPECVAFPMFQCHWYCG
modifications: neighboring cysteines cross-linked by chemical linkers (linker not named); N-terminal 5(6)-carboxyfluorescein; synthesised on rink amide AM resin
notes: Both pairs of neighboring cysteines bridged
One may read the Kd as the concentration at which binding is half-saturated. With B1, the dissociation constant (Kd) is approximately 24 nM.
